Measured values as given in patent publication US20160068605A1 (Janssen / Centocor, published 2016).
Where “and” joins values, the source holds several entries; their conditions need not be identical. Equal values may be shown once.

Key:
[1] = molecular target: T1, cell-surface CD3 epsilon on primary human T cells (human, UniProt P07766 23-207); test: flow cytometry on primary human T cells, anti-human IgG Alexa Fluor 647; MFI
T1 construct: whole, on cells; part of the CD3/TCR complex on the cells
Experimental: (§1) The resulting panel of anti-CD3 antibodies was tested for binding against cell-surface CD3ε on primary human T cells. To do this, binding of antibodies from expression supernatants was visualized using a polyclonal anti-human secondary antibody and analyzed by flow cytometry. Briefly, binding of anti-CD3 antibodies to cell-surface CD3ε was assessed by flow cytometry using primary Human T lymphocytes purified by negative selection (Biological Specialty, Colmar, USA). Expression supernatants or purified antibodies were normalized to 10 μg/ml in media or FACS buffer (BD BioSciences), respectively. 2×10⁵ cells were aliquoted into wells of a 96 well round-bottomed plate (CoStar) for labeling. Antibodies in expression supernatant were added to cells and incubated for 45 min at 4° C. Following centrifugation at 1300 rpm for 3 min and removal of supernatant, 50 μL of anti-human IgG (H+L) Alexa Fluor 647 secondary antibody (Life technologies Inc.) was incubated with the cells at a final concentration of 10 μg/mL for 30 min at 4° C. away from direct light. Following washing and resuspension in 30 μL FACs buffer (BD BioSciences). Sample collection was performed on an Intellicyt HTFC system using ForeCyt software. Viable single cells were gated prior to analysis of binding using the green or red fixable live/dead dyes (Life Technologies Inc.) and forward/side scatter area and height parameters, respectively. Graphs were generated in GraphPad Prism version 5 using mean fluorescence intensity values.

[2] = molecular target: T2, cell-surface CD3 epsilon on primary cynomolgus T cells (cynomolgus monkey, UniProt Q95LI5 22-198); test: flow cytometry on primary cynomolgus CD4+ T cells, anti-human IgG Alexa Fluor 647; MFI
T2 construct: whole, on cells; also called cynomolgus CD3e; Cyno T-cells
Experimental: as §1
Binding analysis of the anti-CD3 hits to primary cynomolgusCD4⁺ T cells was then tested in order to assess the retention of cross-reactivity. Purified CD4⁺ T cells from the peripheral blood of cynomolgus monkeys (Zen Bio, Triangle Research Park, USA were used). Assay protocols were similar to those described above.

[3] = molecular target: T3, cyno CD123 ECD displayed on pDisplay-transfected cells (cynomolgus monkey); test: MSD cell binding on 293F pDisplay cells; fold change over background; parental 293F cells as control
T3 construct: ECD anchored on the surface of stably transfected HEK293 cells; also called cynoCD123 SP1 cells; cynoCD123 cells
T3 chain: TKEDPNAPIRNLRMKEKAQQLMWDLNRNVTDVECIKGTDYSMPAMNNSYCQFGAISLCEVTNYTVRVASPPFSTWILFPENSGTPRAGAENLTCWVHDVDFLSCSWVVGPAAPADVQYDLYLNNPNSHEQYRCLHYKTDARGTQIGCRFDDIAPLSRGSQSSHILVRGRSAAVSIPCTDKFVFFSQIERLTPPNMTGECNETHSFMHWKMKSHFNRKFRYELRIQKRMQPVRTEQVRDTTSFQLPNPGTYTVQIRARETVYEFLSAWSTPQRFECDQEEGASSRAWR
Experimental: (§2) The object of the screening assay was to identify antibodies that bound to cells expressing hCD123 SP1 and SP2 as well as cross reactivity with cells expressing cynoCD123 SP1.
(§3) Cells were immobilized and phages were assayed in triplicate. […] 5000 cells per well were plated into a 384 well plate (MA6000, cat. L21XB, MSD) and allowed to adhere for 2 hr. Cells were then blocked with 20% FBS in PBS (Gibco) for 15 mins. Antibody supernatants were then added and left at RT for 1 hr. Cells were washed 3 times with PBS and a ruthenium labeled secondary antibody (Jackson Immuno Research) was then added at 1 μg/mL and incubated for 1 hr at room temperature. A further washing step was then applied and 35 μL per well of MSD Read buffer T (surfactant free) was then added and incubated for 30 min for detection. Plates were then read using Sector Imager 2400 (MSD). Data was normalized to controls and graphed using GraphPad Prism Version 5. A positive binder was determined to be a hit with a signal 3× greater than background (FIGS. 2A, B and C).

[4] = molecular target: T4, Recombinant human CD123 SP1 ECD-His tag protein (human, UniProt P26951 20-305); test: SPR Biacore 3000, captured mAb
T4 construct: bought from R&D Systems (#301-R3/CF); biotinylated for some assays; also called rhCD123 SP1; huCD123 ECD SP1
T4 sequence: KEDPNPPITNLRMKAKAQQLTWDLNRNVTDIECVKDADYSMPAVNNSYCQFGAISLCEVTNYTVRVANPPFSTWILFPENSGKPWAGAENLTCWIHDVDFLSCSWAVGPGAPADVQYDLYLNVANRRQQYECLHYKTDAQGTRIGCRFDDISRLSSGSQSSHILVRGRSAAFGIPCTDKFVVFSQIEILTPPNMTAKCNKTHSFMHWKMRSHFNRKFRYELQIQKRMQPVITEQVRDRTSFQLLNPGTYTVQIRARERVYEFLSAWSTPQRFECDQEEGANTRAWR
Experimental: (§4) Kinetic studies were performed at 25° C. using a Biacore 3000 (BIAcore, Inc., now part of GE Healthcare). […] Sheep anti-Human Fd specific antibody (The binding site Prod # PC075) was covalently attached to two flow cells (normally 3 and 4) of the carboxymethyl dextran coated gold surfaces (CM-5 Chip, Biacore). The carboxymethyl groups of dextran were activated with N-Ethyl-N′-(3-Dimethylaminopropyl)carbodiimide (EDC) and N-hydroxysuccinimide (NHS). The antibodies were coupled at pH 4.5 in 10 mM sodium acetate. Any remaining reactive sites on the surface were blocked by reaction with ethanolamine. […] Association data was collected for 2 min followed by 10 min of dissociation. The surface was regenerated with 30 μL of 100 mM H3PO4 100 μL/min. All samples were prepared in D-PBS containing 3 mM EDTA and 0.005% surfactant P20. Data reported is the difference in SPR signal between the flow cell containing the captured antibody or Fab and a reference cell without captured antibody or Fab. Additional instrumental contributions to the signal were removed by subtraction of the data from the blank injection from the reference-subtracted signal. Data were performed in triplicate and analyzed by fitting association and dissociation phases at all concentrations (global fit) with a 1:1 binding model using the BIAevaluation software (BIAcore, Inc.). […] Data presented is an average.

[5] = molecular target: T4, Recombinant human CD123 SP1 ECD-His tag …; test: SPR ProteOn, captured mAb
Experimental: (§5) The biosensor surface was prepared by covalently coupling Goat anti-Human IgG (Fc) to the surface of a GLC chip (BioRad) using the manufacturer instructions for amine-coupling chemistry. […] The RU immobilized also included a goat anti-mouse Fc antibody that was added to capture other antibodies not included in the ones reported here. Since the mixture was 1:1 about 50% of these RU immobilized are expected to be goat anti-human Fc. The kinetic experiments were performed at 25° C. in running buffer (PBS pH 7.4, 0.005% P20, 3 mM EDTA). […] The reference spots (Goat anti-Human IgG (Fc)-modified surface) containing no candidate captured were used as a reference surface. Capture of mAb was followed by 3 min injection (association phase) of antigen at 40 μL/min, followed by 10 min of buffer flow (dissociation phase). […] Data was processed on the instrument software. Double reference subtraction of the data was performed by subtracting the curves generated by buffer injection from the reference-subtracted curves for analyte injections. Kinetic analysis of the data was performed using 1:1 Langmuir binding model with group fit. The result for each mAb was reported in the format of Kₐ (kon or on-rate), Kd (koff or off-rate), KD (Equilibrium dissociation constant) (Table 5).

[6] = molecular target: T5, human CD123 SP2 ECD displayed on pDisplay-transfected cells (human, UniProt P26951 101-305); test: MSD cell binding on 293F pDisplay cells; fold change over background; parental 293F cells as control
T5 construct: ECD anchored on the surface of stably transfected HEK293 cells; also called hCD123 SP2 cells; pDisplay CD123SP2
T5 sequence: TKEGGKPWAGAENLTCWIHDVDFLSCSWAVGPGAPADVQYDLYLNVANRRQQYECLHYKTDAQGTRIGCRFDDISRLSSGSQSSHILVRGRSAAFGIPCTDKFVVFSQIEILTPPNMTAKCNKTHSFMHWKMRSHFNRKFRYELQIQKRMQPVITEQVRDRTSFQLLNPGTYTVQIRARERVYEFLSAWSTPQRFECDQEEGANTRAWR
Experimental: as §2, §3

[7] = molecular target: T4, Recombinant human CD123 SP1 ECD-His tag …; test: SPR Biacore 3000, captured Fab
Experimental: as §4

[8] = molecular target: T6, Recombinant human CD123 SP2 ECD protein (human, UniProt P26951 101-303); test: SPR ProteOn, captured mAb
T6 construct: also called rhCD123 SP2; CD123 ECD SP2
T6 sequence: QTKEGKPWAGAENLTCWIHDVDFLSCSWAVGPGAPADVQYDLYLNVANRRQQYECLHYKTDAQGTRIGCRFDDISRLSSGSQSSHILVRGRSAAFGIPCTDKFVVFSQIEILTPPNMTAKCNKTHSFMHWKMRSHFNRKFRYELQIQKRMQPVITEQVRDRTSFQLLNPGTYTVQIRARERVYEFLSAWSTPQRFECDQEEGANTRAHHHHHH
Experimental: as §5

T1 sequence (P07766 23-207): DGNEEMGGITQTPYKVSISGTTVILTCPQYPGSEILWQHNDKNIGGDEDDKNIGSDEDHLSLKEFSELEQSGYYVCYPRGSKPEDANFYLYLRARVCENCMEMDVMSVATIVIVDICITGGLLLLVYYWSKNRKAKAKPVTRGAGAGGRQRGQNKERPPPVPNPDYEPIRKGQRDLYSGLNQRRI
T2 sequence (Q95LI5 22-198): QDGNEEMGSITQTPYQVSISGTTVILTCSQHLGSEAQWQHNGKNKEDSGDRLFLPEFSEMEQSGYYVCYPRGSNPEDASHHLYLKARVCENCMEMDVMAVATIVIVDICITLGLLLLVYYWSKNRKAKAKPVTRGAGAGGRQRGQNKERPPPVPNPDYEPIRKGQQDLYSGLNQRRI

B1: G11 (antibody, V domains shown)
VH: EVQLLESGGGLVQPGGSLRLSCAASGFTFSSYGMSWVRQAPGKGLEWVSGINGGGGSKYYADSVKGRFTISRDNSKNTLYLQMNSLRAEDTAVYYCAKTSAQRFDYWGQGTLVTVSS
VL: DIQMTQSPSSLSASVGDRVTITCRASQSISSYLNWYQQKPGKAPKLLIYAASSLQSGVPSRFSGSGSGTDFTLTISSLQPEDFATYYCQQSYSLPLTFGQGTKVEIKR
notes: in-house phage-derived anti-CD3 positive control with the same Fc region as the tested antibodies
binding result [1]: binds

B2: CD3B148 (antibody, IgG1, V domains shown)
VH: EVQLLESGGGLVQPGGSLRLSCAASGFTFNTYAMNWVRQAPGKGLEWVARIRSKYNNYATYYADSVKGRFTISRDNSKNTLYLQMNSLRAEDTAVYYCAKHGNFGNSYVSWFAYWGQGTLVTVSS
VL: QSVLTQPPSVSAAPGQKVTISCRSSTGAVTTSNYANWVQQLPGTAPKGLIGGTNKRAPGIPDRFSGSKSGTSATLGITGLQTGDEADYYCALWYSNLWVFGGGTKLTVL
notes: IgG1 constant region with L234A, L235A, F405L; human lambda light chain constant region
binding result [2]: no binding (tested: not printed)

B3: CD3B144 (antibody, IgG1, V domains shown)
VH: EVQLVESGGGLVQPGGSLRLSCAASGFTFNTYAMNWVRQAPGKGLEWVARIRSKYNNYATYYAASVKGRFTISRDDSKNSLYLQMNSLKTEDTAVYYCARHGNFGNSYVSWFAYWGQGTLVTVSS
VL: QSVLTQPPSVSAAPGQKVTISCRSSTGAVTTSNYANWVQQLPGTAPKGLIGGTNKRAPGIPDRFSGSKSGTSATLGITGLQTGDEADYYCALWYSNLWVFGGGTKLTVL
notes: as for B2
binding result [1]: no binding

B4: I3RB35 (antibody, IgG1, V domains shown)
VH: QVQLVQSGAEVKKPGSSVKVSCKASGGTFSSYAISWVRQAPGQGLEWMGGIIPIFGTANYAQKFQGRVTITADESTSTAYMELSSLRSEDTAVYYCARHLFWDAGPLDYWGQGTLVTVSS
VL: DIQMTQSPSSLSASVGDRVTITCRASQSISSYLNWYQQKPGKAPKLLIYAASSLQSGVPSRFSGSGSGTDFTLTISSLQPEDFATYYCQQYFSPPYTFGQGTKVEIK
notes: IgG1
binding result [3]: binds | Kd [4]: 4.8 nM | koff [4]: 0.00258 s⁻¹ | kon [4]: 540000 M⁻¹ s⁻¹ | Kd [5]: 2.83 nM | koff [5]: 0.00293 s⁻¹ | kon [5]: 1.04e+06 M⁻¹ s⁻¹

B5: I3RB37 (antibody, IgG1, V domains shown)
VH: QVQLVQSGAEVKKPGSSVKVSCKASGGTFSSYAISWVRQAPGQGLEWMGGIIPIFGTANYAQKFQGRVTITADESTSTAYMELSSLRSEDTAVYYCARDKTDFPSRLDYWGQGTLVTVSS
VL: DIQMTQSPSSLSASVGDRVTITCRASQSIATWLNWYQQKPGKAPKLLIYAASSLQSGVPSRFSGSGSGTDFTLTISSLQPEDFATYYCQQYITFPLTFGQGTKVEIK
notes: IgG1
binding result [6]: no binding (tested: 10 µg/mL) | binding result [3]: binds | Kd [4]: 9.7 nM | koff [4]: 0.0053 s⁻¹ | kon [4]: 545000 M⁻¹ s⁻¹ | Kd [5]: 6.27 nM and 5.15 nM | koff [5]: 0.00669 s⁻¹ and 0.00621 s⁻¹ | kon [5]: 1.07e+06 M⁻¹ s⁻¹ and 1.21e+06 M⁻¹ s⁻¹

B6: I3RB122 (Fab, V domains shown)
VH: QVQLVQSGAEVKKPGSSVKVSCKASGGTFSSYAISWVRQAPGQGLEWMGGIIPIFGTANYAQKFQGRVTITADESTSTAYMELSSLRSEDTAVYYCARDKTDFPSRLDYWGQGTLVTVSS
VL: DIQMTQSPSSLSASVGDRVTITCRASQSIATWLNWYQQKPGKAPKLLIYAASSLQSGVPSRFSGSGSGTDFTLTISSLQPEDFATYYCQQYITFPLTFGQGTKVEIK
notes: also called Fab of I3RB37
Kd [7]: 11.5 nM | koff [7]: 0.0045 s⁻¹ | kon [7]: 393000 M⁻¹ s⁻¹

B7: I3RB9 (antibody, IgG1, V domains shown)
VH: QVQLVQSGAEVKKPGSSVKVSCKASGGTFSSYAISWVRQAPGQGLEWMGGIIPIFGTANYAQKFQGRVTITADESTSTAYMELSSLRSEDTAVYYCARGARWFNPPENLDYWGQGTLVTVSS
VL: not shown
notes: IgG1; also called I3RB09
binding result [6]: no binding (tested: 10 µg/mL) | binding result [3]: no binding (tested: 10 µg/mL) | binding result [8]: no binding (tested: 400 nM) | Kd [5]: 12.4 nM | koff [5]: 0.00843 s⁻¹ | kon [5]: 680000 M⁻¹ s⁻¹
